Target: T1, CHIP-myc (wild type), Q9UNE7
T1 chain: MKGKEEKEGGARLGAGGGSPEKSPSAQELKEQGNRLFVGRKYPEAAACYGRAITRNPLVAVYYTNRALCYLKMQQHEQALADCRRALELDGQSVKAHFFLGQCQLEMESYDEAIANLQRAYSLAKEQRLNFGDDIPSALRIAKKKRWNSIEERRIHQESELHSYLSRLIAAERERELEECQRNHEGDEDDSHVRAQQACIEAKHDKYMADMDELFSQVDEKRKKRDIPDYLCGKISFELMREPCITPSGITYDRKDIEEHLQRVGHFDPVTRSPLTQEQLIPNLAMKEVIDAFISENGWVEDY
Assay: co-immunoprecipitation (anti-flag IP, anti-myc immunoblot), quantified
Conditions: chain shown with the change, serum deprived for 24 h, co-transfected with HSP70-V5 and CHIP-myc, read off a plot

response (arbitrary units) (+FSK (30'), parent: est. 100): 5
response (arbitrary units) (-FSK, parent: est. 10): 28
B1: NEK10-flag (wild type), Q6ZWH5-1 T812A (protein)
chain: MPDQDKKVKTTEKSTDKQQEITIRDYSDLKRLRCLLNVQSSKQQLPAINFDSAQNSMTKSEPAIRAGGHRARGQWHESTEAVELENFSINYKNERNFSKHPQRKLFQEIFTALVKNRLISREWVNRAPSIHFLRVLICLRLLMRDPCYQEILHSLGGIENLAQYMEIVANEYLGYGEEQHTVDKLVNMTYIFQKLAAVKDQREWVTTSGAHKTLVNLLGARDTNVLLGSLLALASLAESQECREKISELNIVENLLMILHEYDLLSKRLTAELLRLLCAEPQVKEQVKLYEGIPVLLSLLHSDHLKLLWSIVWILVQVCEDPETSVEIRIWGGIKQLLHILQGDRNFVSDHSSIGSLSSANAAGRIQQLHLSEDLSPREIQENTFSLQAACCAALTELVLNDTNAHQVVQENGVYTIAKLILPNKQKNAAKSNLLQCYAFRALRFLFSMERNRPLFKRLFPTDLFEIFIDIGHYVRDISAYEELVSKLNLLVEDELKQIAENIESINQNKAPLKYIGNYAILDHLGSGAFGCVYKVRKHSGQNLLAMKEVNLHNPAFGKDKKDRDSSVRNIVSELTIIKEQLYHPNIVRYYKTFLENDRLYIVMELIEGAPLGEHFSSLKEKHHHFTEERLWKIFIQLCLALRYLHKEKRIVHRDLTPNNIMLGDKDKVTVTDFGLAKQKQENSKLTSVVGTILYSCPEVLKSEPYGEKADVWAVGCILYQMATLSPPFYSTNMLSLATKIVEAVYEPVPEGIYSEKVTDTISRCLTPDAEARPDIVEVSSMISDVMMKYLDNLSTSQLSLEKKLERERRRAQRYFMEANRNTVTCHHELAVLSHETFEKASLSSSSSGAASLKSELSESADLPPEGFQASYGKDEDRACDEILSDDNFNLENAEKDTYSEVDDELDISDNSSSSSSSPLKESTFNILKRSFSASGGERQSQTRDFTGGTGSRPRPALLPLDLLLKVPPHMLRAHIKEIEAELVTGWQSHSLPAVILRNLKDHGPQMGTFLWQASAGIAVSQRKVRQISDPIQQILIQLHKIIYITQLPPALHHNLKRRVIERFKKSLFSQQSNPCNLKSEIKKLSQGSPEPIEPNFFTADYHLLHRSSGGNSLSPNDPTGLPTSIELEEGITYEQMQTVIEEVLEESGYYNFTSNRYHSYPWGTKNHPTKR
